Reference: PMC7922139, “Characterization of a Yellow Laccase from Botrytis cinerea 241” (Journal of Fungi, 2021)

Assays:
[1] = tested on: CCn1c(=NN=c2sc3cc(S(=O)(=O)O)ccc3n2CC)sc2cc(S(=O)(=O)O)ccc21; assay: purified protein; details: 50 mM sodium acetate pH 5.5, 25 °C
[2] = tested on: CN(C)CCCN1c2ccccc2Sc2ccccc21; assay: purified protein; details: 50 mM sodium acetate pH 5.5, 25 °C
[3] = tested on: COc1cc(/C=C/C(=O)O)cc(OC)c1O; assay: purified protein; details: 50 mM sodium acetate pH 5.5, 25 °C
[4] = tested on: COc1cc(C(=O)O)cc(OC)c1O; assay: purified protein; details: 50 mM sodium acetate pH 5.5, 25 °C
[5] = tested on: COc1cc(C=NN=Cc2cc(OC)c(O)c(OC)c2)cc(OC)c1O; assay: purified protein; details: 50 mM sodium acetate pH 5.5, 25 °C
[6] = tested on: Nc1ccc(N)cc1; assay: purified protein; details: 50 mM sodium acetate pH 5.5, 25 °C
[7] = tested on: O=C(O)/C=C/c1ccc(O)c(O)c1; assay: purified protein; details: 50 mM sodium acetate pH 5.5, 25 °C
[8] = tested on: O=C(O)CCN1c2ccccc2Oc2ccccc21; assay: purified protein; details: 50 mM sodium acetate pH 5.5, 25 °C
[9] = tested on: O=C(O)c1cc(O)c(O)c(O)c1; assay: purified protein; details: 50 mM sodium acetate pH 5.5, 25 °C
[10] = tested on: O=c1c(O)c(-c2ccc(O)c(O)c2)oc2cc(O)cc(O)c12; assay: purified protein; details: 50 mM sodium acetate pH 5.5, 25 °C
[11] = tested on: O=c1c(O)c(-c2ccc(O)c(O)c2)oc2cc(O)ccc12; assay: purified protein; details: 50 mM sodium acetate pH 5.5, 25 °C
[12] = tested on: O=c1c(O)c(-c2ccc(O)cc2)oc2cc(O)cc(O)c12; assay: purified protein; details: 50 mM sodium acetate pH 5.5, 25 °C
[13] = tested on: OCCN1c2ccccc2Oc2ccccc21; assay: purified protein; details: 50 mM sodium acetate pH 5.5, 25 °C
[14] = tested on: Oc1ccc(O)cc1; assay: purified protein; details: 50 mM sodium acetate pH 5.5, 25 °C
[15] = tested on: Oc1ccccc1O; assay: purified protein; details: 50 mM sodium acetate pH 5.5, 25 °C
[16] = molecular target: yellow laccase Bcl1 from Botrytis cinerea strain 241 (Botrytis cinerea strain 241); assay: SEC; Superdex 200 5/150 GL analytical column, 50 mM Tris-HCl, 150 mM NaCl, pH 8; mass read against standards (apoferritin, beta-amylase, alcohol dehydrogenase, albumin) and compared with the mass by SDS-PAGE

Bcl1 laccase (Botrytis cinerea) showed a Km [1] of 13.8 ± 0.2 µM, a kcat [1] of 29 ± 1 s⁻¹ and a kcat/Km [1] of 2.1e+06 ± 100000 M⁻¹ s⁻¹. The Km [2] was 60.0 ± 10 µM, the kcat [2] was 7.1 ± 0.3 s⁻¹ and the Km [3] was 60.0 ± 10 µM. For the same substance, the kcat [3] was 100 ± 10 s⁻¹, the Km [4] was 74.0 ± 12 µM and the kcat [4] was 3.4 ± 0.5 s⁻¹. The kcat/Km [4] was 46000 ± 5000 M⁻¹ s⁻¹, the Km [5] was 0.7 ± 0.1 µM and the kcat [5] was 30 ± 2 s⁻¹. It also gave a kcat/Km [5] of 4.3e+07 ± 7e+06 M⁻¹ s⁻¹, a Km [6] of 150.0 ± 20 µM and a kcat [6] of 15 ± 1 s⁻¹. For the same substance, the kcat/Km [6] was 100000 ± 2000 M⁻¹ s⁻¹, the Km [7] was 15.0 ± 1 µM and the kcat [7] was 13 ± 1 s⁻¹. For the same substance, the kcat/Km [7] was 870000 ± 200000 M⁻¹ s⁻¹, the Km [8] was 6.0 ± 0.8 µM and the kcat [8] was 33 ± 1 s⁻¹. For the same substance, the kcat/Km [8] was 5.5e+06 ± 800000 M⁻¹ s⁻¹, the Km [9] was 27.0 ± 8 µM and the kcat [9] was 20 ± 3 s⁻¹. For the same substance, the kcat/Km [9] was 740000 ± 200000 M⁻¹ s⁻¹, the Km [10] was 3.7 ± 0.8 µM and the kcat [10] was 6.7 ± 0.4 s⁻¹. For the same substance, the kcat/Km [10] was 1.8e+06 ± 300000 M⁻¹ s⁻¹, the Km [11] was 1.5 ± 0.1 µM and the kcat [11] was 7.8 ± 0.3 s⁻¹. For the same substance, the kcat/Km [11] was 5.2e+06 ± 900000 M⁻¹ s⁻¹, the Km [12] was 8.6 ± 0.1 µM and the kcat/Km [12] was 2e+06 ± 400000 M⁻¹ s⁻¹. For the same substance, the Km [13] was 40.0 ± 7 µM, the kcat [13] was 25 ± 2 s⁻¹ and the kcat/Km [13] was 630000 ± 30000 M⁻¹ s⁻¹. The kcat [14] was 21.4 ± 0.3 s⁻¹, the kcat/Km [14] was 97000 ± 2000 M⁻¹ s⁻¹ and the Km [15] was 70.0 ± 4 µM. The kcat [15] was 28 ± 1 s⁻¹ and the kcat/Km [15] was 400000 ± 20000 M⁻¹ s⁻¹.
“yellow laccase Bcl1 from Botrytis cinerea strain 241 (enzyme)” showed a stoichiometry N [16] of 2.
